Results from paper PMC4007472, “Evidence for Steric Regulation of Fibrinogen Binding to Staphylococcus aureus Fibronectin-binding Protein A (FnBPA)*” (The Journal of Biological Chemistry, 2014).

B1: NTD (30-kDa N-terminal proteolytic fragment of fibronectin) (domain or fragment)
chain: not shown
modifications: Limits not printed: conventional N-terminal 29-30 kDa fragment, mature residues 1-259 (1-5F1). N-terminal pyroglutamate, intradomain disulfides
B2: FgγC (synthetic peptide, 17 C-terminal residues of the Fg γA chain) (peptide)
peptide: Ac-GEGQQHHLGGAKQAGDV-NH2
notes: Fibrinogen γA chain, human, the 17 C-terminal residues; also called Fg peptide; source: synthetic peptide (Severn Biotech Ltd.)
B3: AF1 (rFnBPA(189–550)) (domain or fragment)
chain: AKVETGTDVTSKVTVEIGSIEGHNNTNKVEPHAGQRAVLKYKLKFENGLHQGDYFDFTLSNNVNTHGVSTARKVPEIKNGSVVMATGEVLEGGKIRYTFTNDIEDKVDVTAELEINLFIDPKTVQTNGNQTITSTLNEEQTSKELDVKYKDGIGNYYANLNGSIETFNKANNRFSHVAFIKPNNGKTTSVTVTGTLMKGSNQNGNQPKVRIFEYLGNNEDIAKSVYANTTDTSKFKEVTSNMSGNLNLQNNGSYSLNIENLDKTYVVHYDGEYLNGTDEVDFRTQMVGHPEQLYKYYYDRGYTLTWDNGLVLYSNKANGNEKNGPIIQNNKFEYKEDTIKETLTGQYDKNLVTTVEEEYDSS
notes: Cloned in pET-YSBLIC-3C; not shown: His6, N-terminal, cleaved
B4: FgD (monomeric ~85-kDa proteolytic fragment of Fg) (domain or fragment)
chain 1: DNTYNRVSEDLRSRIEVLKRKVIEKVQHIQLLQKNVRAQLVDMKRLEVDIDIKIRSCRGSCSRALAREVDLKDYEDQQKQLEQVIAKDLLPSR
chain 2: DNENVVNEYSSELEKHQLYIDETVNSNIPTNLRVLRSILENLRSKIQKLESDVSAQMEYCRTPCTVSCNIPVVSGKECEEIIRKGGETSEMYLIQPDSSVKPYRVYCDMNTENGGWTVIQNRQDGSVDFGRKWDPYKQGFGNVATNTDGKNYCGLPGEYWLGNDKISQLTRMGPTELLIEMEDWKGDKVKAHYGGFTVQNEANKYQISVNKYRGTAGNALMDGASQLMGENRTMTIHNGMFFSTYDRDNDGWLTSDPRKQCSKEDGGGWWYNRCHAANPNGRYYWGGQYTWDMAKHGTDDGVVWMNWKGSWYSMRKMSMKIRPFFPQQ
chain 3: AIQLTYNPDESSKPNMIDAATLKSRKMLEEIMKYEASILTHDSSIRYLQEIYNSNNQKIVNLKEKVAQLEAQCQEPCKDTVQIHDITGKDCQDIANKGAKQSGLYFIKPLKANQQFLVYCEIDGSGNGWTVFQKRLDGSVDFKKNWIQYKEGFGHLSPTGTTEFWLGNEKIHLISTQSAIPYALRVELEDWNGRTSTADYAMFKVGPEADKYRLTYAYFAGGDAGDAFDGFDFGDDPSDKFFTSHNGMQFSTWDNDNDKFEGNCAEQDGSGWWMNKCHAGHLNGVYYQGGTYSKASTPNGYDNGIIWATWKTRWYSMKKTTMKIIPFNRLTIGEGQQHHLGGAKQAGDV
modifications: Limits not printed: conventional plasmin fragment D1 (mature Aalpha 105-197, Bbeta 134-461, gamma 63-411), ends may be ragged; gammaA C-terminus (AGDV) used because the UniProt canonical entry is …

Key:
Conditions in all cases: both partners purified
[1] = biological target: B3; test: SPR; AF1 immobilised by amine coupling, Fn (5.2–0.01 nM) or NTD as analyte; kinetic analysis, Langmuir 1:1 fit; 25 °C, HBS-P+
[2] = biological target: B3; test: ITC; MicroCal VP-ITC, PBS pH 7.4, 25 °C, single-site binding model; AF1 injected into NTD; AF1 with Fg
[3] = biological target: B3; test: SPR; NTD immobilised on a C1 chip; 0.5 μM AF1 + 0.5 μM Fg injected together, without or with 50 μM FgγC; 25 °C, HBS-P+
[4] = biological target: T1, rFnBPA(189–505) (S. aureus 8325-4, UniProt P14738 189-505); test: crystal structure; rFnBPA(189–505) 25 mg/ml with a 20-fold molar excess of FgγC; 1.83 Å
T1 construct: Cloned in pET-YSBLIC-3C; also called N2N3 (without latch); not shown: His6, N-terminal, cleaved
T1 sequence: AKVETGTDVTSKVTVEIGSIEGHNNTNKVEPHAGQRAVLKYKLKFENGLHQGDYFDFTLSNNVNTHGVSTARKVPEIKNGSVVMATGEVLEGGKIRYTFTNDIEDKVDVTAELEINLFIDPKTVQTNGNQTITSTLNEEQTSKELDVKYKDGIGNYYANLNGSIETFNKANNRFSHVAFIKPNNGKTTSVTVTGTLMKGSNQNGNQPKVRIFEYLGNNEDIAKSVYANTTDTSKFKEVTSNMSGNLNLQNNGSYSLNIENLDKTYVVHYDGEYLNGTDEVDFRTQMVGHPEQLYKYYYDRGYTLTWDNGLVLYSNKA

[5] = biological target: Human plasma fibronectin (Fn) (human, Plasma form by convention: no EDB or EDA, disulfide-linked heterodimer of a V+ chain (V89 chosen) and a V0 chain; the real material is a splice mixture. N-terminal pyroglutamate, glycosylated); test: SPR; AF1 immobilised by amine coupling, Fn (5.2–0.01 nM) or NTD as analyte; kinetic analysis, Langmuir 1:1 fit; 25 °C, HBS-P+
[6] = biological target: T2, Intact human plasma fibrinogen (Fg) (human, UniProt P02671-2 20-644; P02675 31-491; P02679-2 27-437); test: ITC; MicroCal VP-ITC, PBS pH 7.4, 25 °C, single-site binding model; AF1 injected into NTD; AF1 with Fg
T2 construct: Fibrinogen Aα chain, human, from plasma; Fibrinogen Bβ chain, human, from plasma; Fibrinogen γ chain, human, from plasma; 341 kDa dimer of heterotrimers Aα, Bβ, γ; source: bought: Calbiochem-Merck-Millipore (human plasma, product no. 341576); in human plasma for the pulldown; copies: 2 + 2 + 2
T2 sequence (looked up) 1: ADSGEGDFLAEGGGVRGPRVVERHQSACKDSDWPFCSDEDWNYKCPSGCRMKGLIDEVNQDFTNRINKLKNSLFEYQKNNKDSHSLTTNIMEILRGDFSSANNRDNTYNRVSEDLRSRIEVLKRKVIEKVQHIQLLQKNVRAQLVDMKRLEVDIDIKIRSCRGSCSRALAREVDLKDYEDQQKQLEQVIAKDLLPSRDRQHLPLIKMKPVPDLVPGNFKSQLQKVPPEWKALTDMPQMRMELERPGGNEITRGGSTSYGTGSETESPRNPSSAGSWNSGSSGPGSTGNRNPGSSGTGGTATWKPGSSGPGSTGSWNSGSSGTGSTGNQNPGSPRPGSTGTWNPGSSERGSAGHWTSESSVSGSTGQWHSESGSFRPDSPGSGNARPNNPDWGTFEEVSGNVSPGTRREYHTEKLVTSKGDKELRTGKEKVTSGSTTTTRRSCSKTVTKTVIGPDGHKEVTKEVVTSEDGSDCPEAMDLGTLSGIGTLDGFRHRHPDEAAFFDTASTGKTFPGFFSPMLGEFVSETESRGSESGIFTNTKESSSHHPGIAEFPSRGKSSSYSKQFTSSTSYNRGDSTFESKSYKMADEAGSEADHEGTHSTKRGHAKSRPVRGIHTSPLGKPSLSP
T2 sequence (looked up) 2: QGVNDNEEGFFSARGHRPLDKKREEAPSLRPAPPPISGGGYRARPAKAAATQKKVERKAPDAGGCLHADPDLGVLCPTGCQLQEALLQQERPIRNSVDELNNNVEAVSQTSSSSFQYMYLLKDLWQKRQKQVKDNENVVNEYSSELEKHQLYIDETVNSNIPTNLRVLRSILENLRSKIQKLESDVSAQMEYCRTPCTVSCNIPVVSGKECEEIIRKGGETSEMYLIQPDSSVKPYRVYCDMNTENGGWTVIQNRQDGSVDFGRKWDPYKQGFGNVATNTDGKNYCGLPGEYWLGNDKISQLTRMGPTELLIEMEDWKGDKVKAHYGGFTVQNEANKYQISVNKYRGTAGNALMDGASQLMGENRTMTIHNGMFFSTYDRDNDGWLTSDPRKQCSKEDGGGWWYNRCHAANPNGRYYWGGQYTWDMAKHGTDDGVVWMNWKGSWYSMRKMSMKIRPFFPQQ
T2 sequence (looked up) 3: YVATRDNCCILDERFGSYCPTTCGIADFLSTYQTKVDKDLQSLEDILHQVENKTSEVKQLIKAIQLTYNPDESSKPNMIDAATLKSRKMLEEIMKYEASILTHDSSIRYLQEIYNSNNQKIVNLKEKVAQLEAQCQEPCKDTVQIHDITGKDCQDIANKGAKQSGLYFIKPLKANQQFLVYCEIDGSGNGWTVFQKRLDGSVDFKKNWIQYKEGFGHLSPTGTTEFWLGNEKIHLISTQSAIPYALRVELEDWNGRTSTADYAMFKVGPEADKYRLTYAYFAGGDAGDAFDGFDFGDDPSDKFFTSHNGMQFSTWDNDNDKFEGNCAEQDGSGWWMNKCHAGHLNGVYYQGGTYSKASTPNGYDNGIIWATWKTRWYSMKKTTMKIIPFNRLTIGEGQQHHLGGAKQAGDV

[7] = biological target: B1; test: as above
[8] = biological target: B3; test: SPR; FgD immobilised by amine coupling, rFnBPA constructs as analytes in 2-fold dilutions; equilibrium (steady-state) analysis; 25 °C, HBS-P+ (10 mM HEPES pH 7.4, 150 mM NaCl, 0.05% polysorbate 20)
[9] = biological target: T3, rFnBPA(189–511) (S. aureus 8325-4, UniProt P14738 189-511); test: as above
T3 construct: Cloned in pET-YSBLIC-3C; also called N2N3 domains including the latch strand; not shown: His6, N-terminal, cleaved
T3 sequence: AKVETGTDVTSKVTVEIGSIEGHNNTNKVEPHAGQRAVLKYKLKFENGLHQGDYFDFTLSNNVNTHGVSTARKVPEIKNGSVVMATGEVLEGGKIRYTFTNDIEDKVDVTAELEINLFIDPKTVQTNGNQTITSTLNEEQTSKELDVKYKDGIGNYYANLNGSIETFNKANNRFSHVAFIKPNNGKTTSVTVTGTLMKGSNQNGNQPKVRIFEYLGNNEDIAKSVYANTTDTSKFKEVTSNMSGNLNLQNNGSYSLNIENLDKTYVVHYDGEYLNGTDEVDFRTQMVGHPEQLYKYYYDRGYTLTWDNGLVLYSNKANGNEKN

[10] = biological target: T1, rFnBPA(189–505); test: as above

**Q.** B1 was tested. Which Kd [1] did it give?
**A.** Its Kd is 0.393 nM.

**Q.** And the Kd [2]?
**A.** Its Kd is 0.7 nM.

**Q.** Does B2 bind [3]?
**A.** Result: binds

**Q.** Does B2 bind [4]?
**A.** Result: binds

**Q.** For B3, which Kd [5] is on record?
**A.** Its Kd is 0.359 nM.

**Q.** And the Kd [6]?
**A.** Its Kd is 1100 nM.

**Q.** And the dH [6]?
**A.** Its dH is -6.1 kcal/mol.

**Q.** What about the “stoichiometry N” value [6] of the same binder?
**A.** Its value is 2.11.

**Q.** What about the dH [7] of the same binder?
**A.** The dH was -35.8 kcal/mol.

**Q.** What about the “stoichiometry N” value [7] of the same binder?
**A.** Its value is 0.89.

**Q.** What does the source list for B4?
**A.** Kd [8]: 1500 nM; Kd [9]: 1500 nM; Kd [10]: 3700 nM
